Assay results from patent US7354734B2, “Fungal proteins and nucleic acids encoding same” (priority 2003, dated 2008).
“Also recorded” adds a separate entry of the source.

Experiments:
[1] = assay type: biochemical; settings: for hydrolytic activity toward Ala-AMC in comparison to Leu-MCA used as a standard: substrate Ala-AMC 5 mM; for hydrolytic activity toward Ala-AMC in comparison to Leu-MCA used as a standard / hydrolytic activity toward Arg-AMC in comparison to Leu-MCA used as a standard / hydrolytic activity toward Asn-AMC in comparison to Leu-MCA used as a standard / hydrolytic activity toward Asp-AMC in comparison to Leu-MCA used as a standard / hydrolytic activity toward Cys-AMC in comparison to Leu-MCA used as a standard / hydrolytic activity toward Gln-AMC in comparison to Leu-MCA used as a standard / hydrolytic activity toward Glu-AMC in comparison to Leu-MCA used as a standard / hydrolytic activity toward Gly-AMC in comparison to Leu-MCA used as a standard / hydrolytic activity toward Gly-Pro-AMC in comparison to Leu-MCA used as a standard / hydrolytic activity toward His-AMC in comparison to Leu-MCA used as a standard / hydrolytic activity toward Hyp-AMC in comparison to Leu-MCA used as a standard / hydrolytic activity toward Ile-AMC in comparison to Leu-MCA used as a standard / hydrolytic activity toward Leu-AMC in comparison to Leu-MCA used as a standard / hydrolytic activity toward Lys-AMC in comparison to Leu-MCA used as a standard / hydrolytic activity toward Met-AMC in comparison to Leu-MCA used as a standard / hydrolytic activity toward Phe-AMC in comparison to Leu-MCA used as a standard / hydrolytic activity toward Pro-AMC in comparison to Leu-MCA used as a standard / hydrolytic activity toward Pyr-AMC in comparison to Leu-MCA used as a standard / hydrolytic activity toward Ser-AMC in comparison to Leu-MCA used as a standard / hydrolytic activity toward Thr-AMC in comparison to Leu-MCA used as a standard / hydrolytic activity toward Val-AMC in comparison to Leu-MCA used as a standard: 37° C., 60 min; for hydrolytic activity toward Arg-AMC in comparison to Leu-MCA used as a standard: substrate Arg-AMC 5 mM; for hydrolytic activity toward Asn-AMC in comparison to Leu-MCA used as a standard: substrate Asn-AMC 5 mM; for hydrolytic activity toward Asp-AMC in comparison to Leu-MCA used as a standard: substrate Asp-AMC 5 mM; for hydrolytic activity toward Cys-AMC in comparison to Leu-MCA used as a standard: substrate Cys-AMC 5 mM; for hydrolytic activity toward Gln-AMC in comparison to Leu-MCA used as a standard: substrate Gln-AMC 5 mM; for hydrolytic activity toward Glu-AMC in comparison to Leu-MCA used as a standard: substrate Glu-AMC 5 mM; for hydrolytic activity toward Gly-AMC in comparison to Leu-MCA used as a standard: substrate Gly-AMC 5 mM; for hydrolytic activity toward Gly-Pro-AMC in comparison to Leu-MCA used as a standard: substrate Gly-Pro-AMC 5 mM; for hydrolytic activity toward His-AMC in comparison to Leu-MCA used as a standard: substrate His-AMC 5 mM; for hydrolytic activity toward Hyp-AMC in comparison to Leu-MCA used as a standard: substrate Hyp-AMC 5 mM; for hydrolytic activity toward Ile-AMC in comparison to Leu-MCA used as a standard: substrate Ile-AMC 5 mM; for hydrolysis of Leu-AMC: substrate Leu-AMC; for hydrolytic activity toward Leu-AMC in comparison to Leu-MCA used as a standard: substrate Leu-AMC 5 mM; for hydrolytic activity toward Lys-AMC in comparison to Leu-MCA used as a standard: substrate Lys-AMC 5 mM; for hydrolytic activity toward Met-AMC in comparison to Leu-MCA used as a standard: substrate Met-AMC 5 mM; for hydrolytic activity toward Phe-AMC in comparison to Leu-MCA used as a standard: substrate Phe-AMC 5 mM; for hydrolytic activity toward Pro-AMC in comparison to Leu-MCA used as a standard: substrate Pro-AMC 5 mM; for hydrolytic activity toward Pyr-AMC in comparison to Leu-MCA used as a standard: substrate Pyr-AMC 5 mM; for hydrolytic activity toward Ser-AMC in comparison to Leu-MCA used as a standard: substrate Ser-AMC 5 mM; for hydrolytic activity toward Thr-AMC in comparison to Leu-MCA used as a standard: substrate Thr-AMC 5 mM; for hydrolytic activity toward Val-AMC in comparison to Leu-MCA used as a standard: substrate Val-AMC 5 mM
[2] = assay type: biochemical; settings: substrate Lys(Abz)Pro-PropNA 5 mM, 37° C., 60 min
[3] = tested on: gliadin 33mer (fragment 57-89 of gliadin MM1); experiment: Digestion of gliadin 33mer (RP-HPLC, ESI-MS); assay type: biochemical, wheat; settings: enzyme plus ruDPPIV (DPPIV), 37° C.

Row | Molecule | hydrolytic activity toward Ala-AMC in comparison to Leu-MCA used as a standard [1] [%] | hydrolytic activity toward Arg-AMC in comparison to Leu-MCA used as a standard [1] [%] | hydrolytic activity toward Asn-AMC in comparison to Leu-MCA used as a standard [1] [%] | hydrolytic activity toward Asp-AMC in comparison to Leu-MCA used as a standard [1] [%] | hydrolytic activity toward Cys-AMC in comparison to Leu-MCA used as a standard [1] [%] | hydrolytic activity toward Gln-AMC in comparison to Leu-MCA used as a standard [1] [%] | hydrolytic activity toward Glu-AMC in comparison to Leu-MCA used as a standard [1] [%] | hydrolytic activity toward Gly-AMC in comparison to Leu-MCA used as a standard [1] [%] | hydrolytic activity toward Gly-Pro-AMC in comparison to Leu-MCA used as a standard [1] [%] | hydrolytic activity toward His-AMC in comparison to Leu-MCA used as a standard [1] [%] | hydrolytic activity toward Hyp-AMC in comparison to Leu-MCA used as a standard [1] [%] | hydrolytic activity toward Ile-AMC in comparison to Leu-MCA used as a standard [1] [%] | hydrolysis of Leu-AMC [1] | hydrolytic activity toward Leu-AMC in comparison to Leu-MCA used as a standard [1] [%] | hydrolytic activity toward Lys-AMC in comparison to Leu-MCA used as a standard [1] [%] | hydrolytic activity toward Met-AMC in comparison to Leu-MCA used as a standard [1] [%] | hydrolytic activity toward Phe-AMC in comparison to Leu-MCA used as a standard [1] [%] | hydrolytic activity toward Pro-AMC in comparison to Leu-MCA used as a standard [1] [%] | hydrolytic activity toward Pyr-AMC in comparison to Leu-MCA used as a standard [1] [%] | hydrolytic activity toward Ser-AMC in comparison to Leu-MCA used as a standard [1] [%] | other results
1 | fuLAP1: A. fumigatus leucine aminopeptidase, 388 amino acid residues (SEQ ID NO: 12) (protein, listed as Aspergillus fumigatus) MKVLTAIALSAIAFTGAVAAVITQEAFLNNPRIHHDQEKYLIELAPYRTRWVTEEEKWALKLDGVNFIDITEEHNTGFYPTLHSASYVKYPPKMQYAEEVAALNKNLSKENMKANLERFTSFHTRYYKSQTGIRSATWLFDQVQRVVSESGAAEYGATVERFSHPWGQFSIIARIPGRTNKTVVLGAHQDSINLFLPSILAAPGADDDGSGTVTILEALRGLLQSDAIAKGNASNTVEFHWYSAEEGGMLGSQAIFSNYKRNRREIKAMLQQDMTGYVQGALNAGVEEAIGIMVDYVDQGLTQFLKDVVTAYCSVGYLETKCGYACSDHTSASKYGYPAAMATEAEMENTNKKIHTTDDKIKYLSFDHMLEHAKLSLGFAFELAFAPF | 4.7 | 53.9 | 29.4 | 0.8 | 5.0 | 44.9 | 0.0 | 0.8 | 5.4 | 0.8 | 3.9 | 13.2 | efficiently hydrolyzed; also recorded: common preference | 100.0 | 7.7 | 116.9 | 163.7 | 12.0 | 0.0 | 10.3 | hydrolytic activity toward Arg-AMC ([1]; compared to Leu-AMC): appreciated; hydrolytic activity toward Phe-AMC ([1]; compared to Leu-AMC): appreciated; hydrolytic activity toward Val-AMC ([1]; compared to Leu-AMC): appreciated; hydrolytic activity toward Thr-AMC in comparison to Leu-MCA used as a standard [1]: 5.1%; hydrolytic activity toward Val-AMC in comparison to Leu-MCA used as a standard [1]: 27.6%; hydrolytic activity toward Lys(Abz)Pro-PropNA in comparison to Leu-MCA used as a standard [2]: 0.0%
2 | fuLAP2: A. fumigatus leucine aminopeptidase, 498 amino acid residues (SEQ ID NO: 9) (protein, listed as Aspergillus fumigatus) MKLLYLTSFASLAVANGPGWDWKPRVHPKVLPQMIHLWDLLQGAQQLEDFAYAYPERNRVFGGRAHEDTVNYLYRELKKTGYYDVYKQPQVHQWTRADQALTVDGQSYDATTMTYSPSVNATAPLAVVNNLGCVEADYPADLTGKIALISRGECTFATKSVLSAKAGAAAALVYNNIEGSMAGTLGGATSELGAYAPIAGISLADGQALIQMIQAGTVTANLWIDSQVENRTTYNVIAQTKGGDPNNVVALGGHTDSVEAGPGINDDGSGIISNLVVAKALTRFSVKNAVRFCFWTAEEFGLLGSNYYVNSLNATEQAKIRLYLNFDMIASPNYALMIYDGDGSAFNLTGPAGSAQIERLFEDYYTSIRKPFVPTEFNGRSDYQAFILNGIPAGGLFTGAEAIKTEEQAQLFGGQAGVALDANYHAKGDNMTNLNREAFLINSRATAFAVATYANSLDSIPPRNMTTVVKRSQLEQAMKRTPHTHTGGTGCYKDRVEQ | 11.7 | 2.3 | 73.5 | 0.3 | 2.1 | 37.0 | 1.1 | 2.2 | 74.1 | 1.9 | 13.3 | 1.8 | efficiently hydrolyzed; also recorded: common preference | 100.0 | 2.3 | 89.5 | 8.9 | 7.4 | 0.0 | 10.3 | digestion of gliadin 33mer, mixed with ruDPPIV [3]: same HPLC pattern; hydrolytic activity toward Thr-AMC in comparison to Leu-MCA used as a standard [1]: 0.1%; hydrolytic activity toward Val-AMC in comparison to Leu-MCA used as a standard [1]: 0.8%; hydrolytic activity toward Lys(Abz)Pro-PropNA in comparison to Leu-MCA used as a standard [2]: 0.0%
